B1: 抗PAD4抗体2-1-47 (antibody, human IgG1, lambda, V domains shown)
VH: EVQLLESGGGLVQPGGSLRLSCAASGFTFSTYAMGWVRQAPGKGLEFVAAIRNDGSWTGYGTPYKTRFTISRDNSKNTLYLQMSSLRAEDTAVYYCAKYTGSSGGSIGAWGQGTLVTVSS
VL: SYELTQPPSVSVSPGQTARITCSGGNRNYYYGWYQQKPGQAPVTVIYANDKRPSGIPERFSGSNSGSTTTLTISGVQAEDEADYYCGTATTGKYVFGGGTKLTVLG
B2: 抗PAD4抗体3-1-39 (antibody, human IgG1, lambda, V domains shown)
VH: EVQLLESGGGLVQPGGSLRLSCAASGFTFSTYAMGWVRQAPGKGLEFVAAIRNDGSWTGTSVNAKTRFTISRDNSKNTLYLQMSSLRAEDTAVYYCAKYTGSSGGSIGAWGQGTLVTVSS
VL: SYELTQPPSVSVSPGQTARITCSGGNRNYYYGWYQQKPGQAPVTVIYANDKRPSGIPERFSGSNSGSTTTLTISGVQAEDEADYYCGTATTGKYVFGGGTKLTVLG
B3: 抗PAD4抗体4-2-25 (antibody, human IgG1, lambda, V domains shown)
VH: EVQLLESGGGLVQPGGSLRLSCAASGFTFSTYAMGWVRQAPGKGLEFVAAIRNDGSWTGYPPPLKGRFTISRDNSKNTLYLQMSSLRAEDTAVYYCAKYTGSSGGSIGAWGQGTLVTVSS
VL: SYELTQPPSVSVSPGQTARITCSGGNRNYYYGWYQQKPGQAPVTVIYANDKRPSGIPERFSGSNSGSTTTLTISGVQAEDEADYYCGTAYTGKYVFGGGTKLTVLG
B4: 抗PAD4抗体3-2-37 (antibody, human IgG1, lambda, V domains shown)
VH: EVQLLESGGGLVQPGGSLRLSCAASGFTFSTYAMGWVRQAPGKGLEFVAAIRNDGSWTGIGYNQKSRFTISRDNSKNTLYLQMSSLRAEDTAVYYCGKYTGSSGGSIGAWGQGTLVTVSS
VL: SYELTQPPSVSVSPGQTARITCSGGNRNYYYGWYQQKPGQAPVTVIYANDKRPSGIPERFSGSNSGSTTTLTISGVQAEDEADYYCGTALTGKYVFGGGTKLTVLG

Biological target: ヒ卜PAD4(Cayman Chemical company、Cat. 10500) (human) (UniProt Q9UM07)
Assay: SPR Biacore T200, stored antibody captured on Protein A chip, human PAD4 at 50 nM as analyte

Sequence of UniProt Q9UM07 (Q9UM07 whole entry): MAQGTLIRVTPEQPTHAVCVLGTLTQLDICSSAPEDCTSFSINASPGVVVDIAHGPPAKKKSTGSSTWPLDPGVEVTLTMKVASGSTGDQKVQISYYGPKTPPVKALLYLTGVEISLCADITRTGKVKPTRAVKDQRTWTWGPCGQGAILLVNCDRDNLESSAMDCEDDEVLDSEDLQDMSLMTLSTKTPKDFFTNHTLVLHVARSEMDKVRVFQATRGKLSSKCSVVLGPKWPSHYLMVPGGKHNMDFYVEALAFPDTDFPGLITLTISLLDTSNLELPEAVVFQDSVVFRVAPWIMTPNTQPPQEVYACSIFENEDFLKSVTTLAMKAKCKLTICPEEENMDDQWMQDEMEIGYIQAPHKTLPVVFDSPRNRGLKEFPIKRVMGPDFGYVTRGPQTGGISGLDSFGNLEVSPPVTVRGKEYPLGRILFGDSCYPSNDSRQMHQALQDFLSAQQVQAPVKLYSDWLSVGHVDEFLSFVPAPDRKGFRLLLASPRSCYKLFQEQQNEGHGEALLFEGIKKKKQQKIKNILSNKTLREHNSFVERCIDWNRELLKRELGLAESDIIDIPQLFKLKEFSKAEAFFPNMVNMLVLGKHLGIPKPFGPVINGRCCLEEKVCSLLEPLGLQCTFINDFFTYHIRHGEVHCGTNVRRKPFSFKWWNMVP

抗原結合活性 (relative antigen binding after 40℃ for 4 weeks against 4℃ for 4 weeks), > 90%:
B1
B2
B3
B4

— patent JP2024028198A
